assay: yeast display, Sf9 membrane polyspecificity reagent, FACS + sequencing; frameworks hold sequencing errors
In short: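 In a synthetic yeast display library (Saccharomyces cerevisiae BJ5465), nanobody expression was induced with galactose for 36–48 hours. FACS gates were set low and high (top ~1%) using anti-HA fluorescence for expression and streptavidin fluorescence for binding of the Sf9 membrane reagent. Each polyreactivity label is drawn from the gate of origin.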

Sequence	polyreactivity (PSR sort gate)
QVQLVESGGGLDQAGGSHRLSCAASGFTFYPNAMGWYRQAPGKERELVASINSDGSTNYADSVKGRFTISRDNAKNTVYLPMNSLIPEDTAVYYCAAGYFWGRIKYYYWVQGTQVTVSS	high polyreactivity
QVQLVESGGGLVQAGGSLRLSCAASGRTFVSNAMGWYRQAPGKERELVAAITQSGGSTYADSVKGRFTISRDNAKNTVYLQLNSLKPEDTAVYYCNSEHAFVGTYYERHDYWGQGTQVTVSS	low polyreactivity
QFQLVETVGGLVQAGGSLRLSCAASGSIFPGYAMGWYRQAPGKERELVATITWSGGSTYYADSVKGRFTISRDNAKNTVYLQMYSLIPEDTAVYYFNADSNWYYQWNYYGLYDYWGKGTQVTVSS	low polyreactivity
QDHLVESGGGLVQAGGSLRLSCAASGISFWFNAMGWYRQAPGKEREWVGAITSGVDTNYADSVKGRFTISRDNAKNTVYLQMNSLKPEDTAVNYSAAQGGRLKRGSTTSDYWGQGTQVTVSS	low polyreactivity
QVQLVESGGGLVQAGGTLRLSSAASGSIFYRNAMGWYRQAPGKERELVDSITSGGLTNYADSVKGRFTISRDNAKNTVYLHMFSLKPEETAVYYCARGRASYTKSGPTPYTGYGYWGQGTQVTVSS	low polyreactivity
QVQLVESGGGLVQAGGSLRLSSAASGNIFVYYAKGLYRHAPGKERELVAAISKRGGSTYYADSVKGRFTISRDNAKNTVYLQMNSLKPEDTAVYYCAALGHVDDSIYDYWGQGTQLTVSS	high polyreactivity
QVQLVESGGGLFQAGGSLRLSCAASGSIFWPNTMGWYRQAPGKERELVATISSGGDTSYADSVKGRFTISRDNEKNTVYLQMNSLKPEDTAVYYLAKSITVDDVHPRALTYNYWGQGTQVTVSS	low polyreactivity
QVQLVESGGGLVQAGGSLRLSCAASGSTFGIYAMGWYRQAPGKERELVAAITWRGSSTYYADSVKGRFTISRDNAKNTVYLQMNSLKPEDTAVYYCAAEDTFYEYYSWGQGTQVTVSS	high polyreactivity
QVQLVESGGGLVQAGGSLRLSCADSGFIFYFYTKGCYIQSPGKDRELVSGITWLDGSTYYADSVKGRFTISRDNAKNTVYLQMNSLKPEDTAVYYCNRDQWPWESGYAYNYWGQGTQVTVSS	low polyreactivity
QVQLVESGGGLVQAGGSLRLSCAASGFILGGYAMGWYRQAPGKERELVAAISWSSGSTYYADSVKGRFTISRDNAKNTVYLQMNSLIPEDTAVYYCAAVGAYDYWGQGTQVTVSS	low polyreactivity
QVQLVESGGGLVQAGGSLRLSCAASGITFVRNAMGWYRQAPGKERELVAAITSRGGITYYADSVKGRFTISRDNAKNTVYLQMNSLKPEDTAVYYCNKTRGYAVNGYNYWGQGTQVTVSS	high polyreactivity
QVQLVESGGGLVQAGGSLRLSCAASGRTFYYYAMGWYRQAPGKERELVASISRRGGSTYYADSVKGRFTISRDNAKNTVYLQMNSLKPEDTAVYYCAASHYHGYSRMDYWGQGTQVTVSS	high polyreactivity
QVQLVESGGGLVQAGGSLRLSCAASGSIFWSNAMGWYRQAPGKERELVAAINQSGTSTYYADSVKGRFTISRDNAKNTVYLQMNSLKTEDTAVYYCAADQVGWTYDYWGQGTQVSVSS	low polyreactivity
QVQLVESGGGLVLAGGSLRLSCAASGFTFFIYVMGWYRQAPGKEREFVAAISSSGDSTYYADSVKGRFTISRDNAKNTVYLQMNSLKPEDTAVYYCNAGDKFSSYWYDYWGQGTQVTVSS	low polyreactivity
QVQLVESAGGLVQAGGSLRLSCAASGFTFYFYAMGWSRQAPGKERELVAAISRSGSRTYYADSVKGRFTISRDNAKNTVYLQMNSLKPEDTAVYYCARVRPRGLYFVLHYDYWGQGTQVTVSS	high polyreactivity
QVQLVESGGGLVQAGGSLRLSCAASGITFYYNAMGWYRQAPGKERELVAAISDGSSTNYADSVKGRFTISRDNAKNTVYLQMNSLKPEDTAVYYCNASWSFPVSGYESRSPGKLDYWGQGTQVTVYS	low polyreactivity

Sequence	polyreactivity (PSR sort gate)
QVQLVESGGGLVQAGGSLRLSCAASGRTFYGNAMGWYRQAPGKERELVAAISWSGGSTYYADSVKGRFTISRDNAKNTVYLQMNSLKPEDTAVYYCNADYFAWDLMYYWGHGTQVTVSS	low polyreactivity
QEQLVESGGGLVQAGGSLRISCAASGFIFGFYAMGWYRQAPGKERELVAAISWSAGSTYFADSVMGRFTISRDNAKNTVYLQMYSLKPEDTAVYYCAAYFDFRDDAVTYDYWGQGTQVTVSS	low polyreactivity
QVQLVESGGGLVQAGGSLRLSCAASGSIFYINDMGWYRQAPGKERELVAAISWSGGTTYYADSVKVRFTISRDNAKNTVYLQMNSLKPEDTAVYYCATDYFFLFPWGLSDYWGQGTQVTVSS	low polyreactivity
QVQLVESGGVLDQAGGSLRLRCAASGSTYYRNAMGWYRQAPGKERELVATINRGGSTYYADSVKWRFTISRDNAKNTVYLQMNSLKPEDPAVYYWAKDPYYAGRYRGDYWGQGTQVTVSS	high polyreactivity
QVQLVESGGGLVQAGGSLRLICAASGLTFWVYTMGWYRQAPGKERELVARITSRGASTYYADSVKGRFTISRDNAKNTVYLQMNSLKPEDTAVYYCATDRYRIYPDYDYWGQGTQVTVSS	high polyreactivity
QVQLQESGGGLVQAGGSLRLSCAASGSISNLIAKGWYRQAQGKEREFVAAIGPGANTNYADSVKGRFTISRDNANNTVSLQMNSLKPDDTAVFYCAVDYYGVAVYHYWGQGTQVTVSS	high polyreactivity
QVQLEESGGGLVQAGGSLSLSCAASGSNFVYNAMGWYRQAPGKERELVAVINSGGSTNYADSVKGRFTISRDNAKNTVYIQKNSRKPEDTAVYYCAADRLAVHYYSWYNYWGQGTQVTVSS	low polyreactivity
QVQLVESGGGLVQAGGSLRLSCAASGIIFYGYVMGWYRQAPGKERELVATSTSSGGSTYYADSVKGRFTISRDNAKNTGYLQMNSLKPEDTAVYYCAADYDYGAWVRHDYWGQGTQVTVSS	low polyreactivity
QVQLVESGGGLVQAGGSLRLSCAASGFTFVRYAMGWYRQAPGKERELVAAISSSGGSTYYADSVKGRFTISRDNAKNTVYLQMNSLKPEDTAVYYCAARPYARYSRNIDGYEYWGQGTQVTVSS	high polyreactivity
QVQLVESGGGLVQAGGSLRLSCAASGSIFKYYTMGWYRQAPGKERELVSGISYRGGSTYYADSVKGRFTISRDNAKNTVYLQMNSLKPEDTAVYYCNAVQLSGGDYWGQGTQVTVSS	high polyreactivity
QVQLVASGVGLVQAVGSLRLSCAASGITFQYYTMGWYRQAPGKERELVAAINWSGGSTYYADSVKGRFTISRDNAKNTVYLQMNSLKPEDTAVYYCNAVRFVEHDYWGQGTQVTVSS	high polyreactivity
QVQLVESGGGLVQAGGSLRLSCAASGSTFSGYVMGWYRQAPGKERELVAAITGRGGNTYYADSVKGRFTISRDNGKNTVYLQMNSLKPEDTAVYYCAAARRSYQYGYWGQGTQVTVSS	high polyreactivity
QVQLVESGGGLVQAGGSLRLSCAASGSIFSRYAMGWYRQAPGKERELVAAISQRAGSTYYADSVKGRFTISRDNAKNTVYLQMNSLKPEDTAVYYCAARRRGRKERGEDYWGQGTQVTVSS	high polyreactivity
QVQLGESGGALVQAGGSLRLSCAASGFTFKYYAMGWYRQAPGKERELVAAISRGGSTYYADSVKGRFTISRDNAKNTVYLQMNILKPEDTAVYYCAARYVRVGYDYWGQGTQVTVSS	high polyreactivity
QVQLVESGGGLVQAGGSLRLSCAASGFIFGDYAMGWYRQAPGKERELVAAISRSGGRTYYADSVKGRFTISRDNAKNTVYLQMNSLKPEDTAVYDCAKSCLNIYDYWGQVTQVTVSS	high polyreactivity
QVQLVESGGGLVQAGGSLRLICAASGFTFRVYSMGWYRQAPGKEREFVASISWTGDTTYYADSVKGRFTISRDNAKNTVYLQMNSLKPEDTEVYYCAVDTILGYDYWGQVTQVTVSS	low polyreactivity

Reference: the nanobody polyreactivity screen of Harvey et al. (2022)
